These results are taken from PMC9882245.

This assay concerns the target NLuc-CLR:RAMP3 (N-terminally nanoluciferase-tagged CLR co-expressed with RAMP3; AM2 receptor) (human) (UniProt Q16602). In words: FRET or BRET.

Chain of NLuc-CLR:RAMP3 (N-terminally nanoluciferase-tagged CLR co-expressed with RAMP3; AM2 receptor) (human) (Q16602 23-461, chain 1 of 2): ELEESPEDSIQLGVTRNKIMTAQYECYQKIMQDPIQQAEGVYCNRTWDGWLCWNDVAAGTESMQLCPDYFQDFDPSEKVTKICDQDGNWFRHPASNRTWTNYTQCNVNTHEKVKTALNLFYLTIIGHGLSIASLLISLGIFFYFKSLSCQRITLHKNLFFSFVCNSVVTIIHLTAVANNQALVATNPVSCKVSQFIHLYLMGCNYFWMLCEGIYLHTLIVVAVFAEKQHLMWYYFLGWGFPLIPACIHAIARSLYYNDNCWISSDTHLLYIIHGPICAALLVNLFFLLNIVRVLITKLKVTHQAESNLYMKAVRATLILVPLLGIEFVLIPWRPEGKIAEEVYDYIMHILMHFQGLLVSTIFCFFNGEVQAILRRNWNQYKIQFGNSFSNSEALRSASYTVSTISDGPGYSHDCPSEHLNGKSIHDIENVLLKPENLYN
Chain of NLuc-CLR:RAMP3 (N-terminally nanoluciferase-tagged CLR co-expressed with RAMP3; AM2 receptor) (human) (O60896 24-148, chain 2 of 2, further chain): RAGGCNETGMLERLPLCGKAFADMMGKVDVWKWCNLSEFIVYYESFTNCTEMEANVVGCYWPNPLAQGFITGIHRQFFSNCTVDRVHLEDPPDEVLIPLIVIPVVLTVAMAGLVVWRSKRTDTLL

A word on the Kd: it is the equilibrium constant for the complex coming apart. A low value points to tighter binding. Regarding “AM-TAMRA (adrenomedullin labeled with TAMRA on a Lys substituted at N40) (peptide)”, the Kd came to 26 nM; the dissociation half-life, fast component was 0.75 min; the dissociation half-life, slow component is 6.9 min; the half-life (t1/2) from the off-rate of the association kinetics analysis stood at 2.5 min.

Turning to “AM2/IMD-TAMRA (adrenomedullin 2/intermedin labeled with TAMRA on a Lys substituted at D35) (peptide)”, the Kd came to 7 nM; the dissociation half-life, fast component was 7 min; the dissociation half-life, slow component was determined as 76 min; the half-life (t1/2) from the off-rate of the association kinetics analysis is 21 min.
